Laboratory results taken from patent US20220340685A1 (Novartis, published 2022).
Residue numbers refer to the chain shown, from its start. “And” between values parts separate entries of the source, which are not always exact repeats. Equal values may be shown once.

T1: recombinant human ENTPD2 (residues 29-462, Y350A mutant) used in crystallographic studies (human, UniProt Q9Y5L3 29-462, N-linked glycosylation observed at Asn129, Asn294, Asn378 and Asn443)
T1 construct: also called human ENTPD2 Y350A; hENTPD2 Y350A
T1 sequence: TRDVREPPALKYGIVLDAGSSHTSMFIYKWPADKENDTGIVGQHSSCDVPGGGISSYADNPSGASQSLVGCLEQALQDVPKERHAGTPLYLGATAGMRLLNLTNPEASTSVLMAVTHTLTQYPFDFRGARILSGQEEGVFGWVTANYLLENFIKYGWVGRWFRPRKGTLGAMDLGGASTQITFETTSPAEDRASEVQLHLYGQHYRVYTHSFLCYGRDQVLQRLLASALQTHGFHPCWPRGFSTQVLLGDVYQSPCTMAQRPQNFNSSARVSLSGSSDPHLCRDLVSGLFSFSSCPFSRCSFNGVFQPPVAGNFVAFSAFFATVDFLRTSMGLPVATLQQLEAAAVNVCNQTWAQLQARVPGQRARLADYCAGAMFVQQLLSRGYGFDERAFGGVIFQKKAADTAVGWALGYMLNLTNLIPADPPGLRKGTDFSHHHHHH

T2: mouse ENTPD2 on cells (mouse, UniProt O55026 1-495)
T2 sequence: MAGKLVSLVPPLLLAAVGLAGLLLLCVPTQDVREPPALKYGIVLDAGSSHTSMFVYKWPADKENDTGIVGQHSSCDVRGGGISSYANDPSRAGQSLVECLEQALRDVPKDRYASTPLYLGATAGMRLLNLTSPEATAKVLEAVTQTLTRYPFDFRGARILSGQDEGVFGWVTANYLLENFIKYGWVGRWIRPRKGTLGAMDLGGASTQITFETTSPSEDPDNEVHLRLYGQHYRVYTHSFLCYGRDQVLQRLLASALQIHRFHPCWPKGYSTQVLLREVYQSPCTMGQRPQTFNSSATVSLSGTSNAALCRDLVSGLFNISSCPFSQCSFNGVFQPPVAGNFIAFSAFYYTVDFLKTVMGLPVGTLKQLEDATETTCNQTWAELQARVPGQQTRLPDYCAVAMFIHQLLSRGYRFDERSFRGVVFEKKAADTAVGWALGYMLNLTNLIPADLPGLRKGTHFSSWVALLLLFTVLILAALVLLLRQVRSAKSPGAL

B1: anti-human ENTPD2 FAb23 (Fab, V domains shown)
VH: EVQLQQFGAELVKPGASVKISCKASGYTFTDYNMDWVKQSHGKSLEWIGDINPKYDISTYNQQFKGKATLTVDKSSSTAYMELRSLTSEDTAVYYCARRGFFLYYGINYYYFDVWGAGTTVTVSS
VL: QIVLTQSPAIMSASLGEEITLTCSASSSVSYIHWYQQKSGTSPTLLIYSTSNLASGVPSRFSGSGSGTFYSLTISSVEAEDAADYYCHQWSSYPWTFGGGTKLEIKR
modifications: residue 1 of the light chain observed and modeled as pyroglutamate in the crystal structure
notes: Fab with human CH1 and human kappa constant regions; variable regions of mAb17; also called anti-hENTPD2 FAb23; anti-human ENTPD2 MAB17 Fab
B2: anti-mouse ENTPD2 mAb13 (antibody, mouse IgG2a, kappa, V domains shown)
VH: QVQLVQSGAELKQPGQSVKISCKASGYTFTHYGMNWVKQAPGQGLKWMGWINTDTGNPTYADDFKGRFVFSLDTSVSTAYLQISNLKNEDTATYYCVRYGTLYSGYGFFFDSWGQGTLVTVSS
VL: DIMMTQSPSSLSVSAGEKATITCKSSQSLFNSNTNKNYLNWYLQKPGQSPKLLFYYASTRHTGVPDRFIGSGSGTDFTLTITSVQDEDLADYYCQQWYSYPWTFGPGTKLEIKR
B3: anti-mouse ENTPD2 mAb14 (antibody, mouse IgG2a, kappa, V domains shown)
VH: B2 VH with T30W
VL: B2 VL
B4: anti-mouse ENTPD2 mAb15 (antibody, mouse IgG2a, kappa, V domains shown)
VH: B2 VH with T30H
VL: B2 VL
B5: anti-human ENTPD2 mAb1 (antibody, human IgG1, kappa)
heavy: not shown
light: DIQLTQSPSSLSASVGDRVTITCSASSSVSYIHWFQQKPGKAPKLLIYSTSNLASGVPSRFSGSGSGTFFTLTISSLQPEDFATYFCHQWSSYPWTFGQGTKVEIKRTVAAPSVFIFPPSDEQLKSGTASVVCLLNNFYPREAKVQWKVDNALQSGNSQESVTEQDSKDSTYSLSSTLTLSKADYEKHKVYACEVTHQGLSSPVTKSFNRGEC
B6: anti-human ENTPD2 FAb22 (Fab, V domains shown)
VH: EVKLEQSGPGLVKPSQSLSLTCSVTGYSITSGYYWNWIRQFPGNKLEWMSYISYDGDNNYNPSLKNRISITRDTSKNQFFLKLSSVTTEDTATYYCAGGYYRYGLSYYYVMDYWGQGTSVTVSA
VL: DIKMTQSPASLAVSLGQRATISCKASQSVDYDGNSYMNWYQQKPGQPPKLLIYAASNLESGIPARFSGSGSGTDFTLNIHPVEEEDAATYYCQQSNEDPPTFGGGTKLELKR
notes: Fab with human CH1 and human kappa constant regions; CDRs of mAb16; also called anti-hENTPD2 FAb22

What was measured:
[1] = biological target: T1, recombinant human ENTPD2 (residues …); assay: X-ray co-crystal structure
[2] = biological target: T2, mouse ENTPD2 on cells; assay: cell-based or functional assay
[3] = biological target: human FcγRIIIa, V158 (high affinity variant) (human, UniProt P08637 17-254); assay: cell-based or functional assay
Sequence of human FcγRIIIa, V158 (high affinity variant) (P08637 other isoform, or with tags, fused parts or gaps mutant limits assumed): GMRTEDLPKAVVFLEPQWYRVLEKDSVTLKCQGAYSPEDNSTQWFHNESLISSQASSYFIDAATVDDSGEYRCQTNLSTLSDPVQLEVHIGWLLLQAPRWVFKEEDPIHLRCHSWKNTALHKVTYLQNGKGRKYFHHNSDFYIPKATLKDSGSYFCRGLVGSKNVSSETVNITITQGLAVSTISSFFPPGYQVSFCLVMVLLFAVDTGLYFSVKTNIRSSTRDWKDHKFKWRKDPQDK

Binder	binding result [1]	ENTPD2 Functional Assay IC50 (mouse ENTPD2 NIH/3T3 cell-based assay) [2] [nM]	further results
B1	binds		
B2		2.8	
B3		4.6	
B4		5.9	
B5			FcγRIIIa signaling, Jurkat NFAT-luciferase reporter cells with RKO target cells, EC50 [3]: 17.3 nM and 2.55 µg/mL
B6	binds		
